Data: publication PMC3528742
Each block holds one molecule with its values, some of them ahead of it.

Tests used:
[1] = target: human c-NADP-ME H51A/D90A (human) (UniProt P48163); assay: AUC; sedimentation velocity, 0.3 mg/ml protein, 30 mM Tris-acetate pH 7.4, without urea, 20°C, 42,000 rpm, SEDFIT continuous size distribution
[2] = target: human c-NADP-ME H51A/D139A (human) (UniProt P48163); assay: as above
[3] = target: human c-NADP-ME H142A (human) (UniProt P48163); assay: as above
[4] = target: human c-NADP-ME H142A/D568A (human) (UniProt P48163); assay: as above
[5] = target: human c-NADP-ME W572A (human) (UniProt P48163); assay: as above
[6] = target: T1, human cytosolic NADP+-dependent malic enzyme, wild type (human), P48163; assay: AUC; sedimentation velocity, 0.3 mg/ml protein, preincubated with 2 M urea in 30 mM Tris-acetate pH 7.4 at 25°C for 16 h, run at 20°C; settings: remark: other sources report otherwise
T1 chain: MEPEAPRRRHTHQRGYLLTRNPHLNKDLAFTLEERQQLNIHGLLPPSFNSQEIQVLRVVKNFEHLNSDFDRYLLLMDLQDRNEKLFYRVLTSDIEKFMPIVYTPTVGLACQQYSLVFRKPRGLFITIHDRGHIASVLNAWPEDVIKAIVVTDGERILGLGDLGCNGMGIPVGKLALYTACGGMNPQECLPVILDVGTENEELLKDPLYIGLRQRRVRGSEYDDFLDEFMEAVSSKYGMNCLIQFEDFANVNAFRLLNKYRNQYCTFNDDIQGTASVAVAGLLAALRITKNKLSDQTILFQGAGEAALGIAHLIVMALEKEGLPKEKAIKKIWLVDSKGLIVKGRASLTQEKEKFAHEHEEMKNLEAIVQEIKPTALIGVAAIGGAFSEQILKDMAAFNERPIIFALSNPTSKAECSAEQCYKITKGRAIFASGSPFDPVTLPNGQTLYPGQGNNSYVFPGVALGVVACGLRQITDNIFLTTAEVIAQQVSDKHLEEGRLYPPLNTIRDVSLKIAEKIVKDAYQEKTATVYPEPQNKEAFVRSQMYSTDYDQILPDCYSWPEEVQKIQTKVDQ

Molecule: human c-NADP-ME H51A/D90A (from UniProt P48163 13-564) (enzyme)
stoichiometry N [1]: 2

Molecule: human c-NADP-ME H142A/D568A (from UniProt P48163 13-564) (enzyme)
stoichiometry N [4]: 2

Molecule: human c-NADP-ME W572A (from UniProt P48163 13-564) (enzyme)
stoichiometry N [5]: 2

B1: human cytosolic NADP+-dependent malic enzyme, wild type, P48163 1-572 (enzyme)
chain: MEPEAPRRRHTHQRGYLLTRNPHLNKDLAFTLEERQQLNIHGLLPPSFNSQEIQVLRVVKNFEHLNSDFDRYLLLMDLQDRNEKLFYRVLTSDIEKFMPIVYTPTVGLACQQYSLVFRKPRGLFITIHDRGHIASVLNAWPEDVIKAIVVTDGERILGLGDLGCNGMGIPVGKLALYTACGGMNPQECLPVILDVGTENEELLKDPLYIGLRQRRVRGSEYDDFLDEFMEAVSSKYGMNCLIQFEDFANVNAFRLLNKYRNQYCTFNDDIQGTASVAVAGLLAALRITKNKLSDQTILFQGAGEAALGIAHLIVMALEKEGLPKEKAIKKIWLVDSKGLIVKGRASLTQEKEKFAHEHEEMKNLEAIVQEIKPTALIGVAAIGGAFSEQILKDMAAFNERPIIFALSNPTSKAECSAEQCYKITKGRAIFASGSPFDPVTLPNGQTLYPGQGNNSYVFPGVALGVVACGLRQITDNIFLTTAEVIAQQVSDKHLEEGRLYPPLNTIRDVSLKIAEKIVKDAYQEKTATVYPEPQNKEAFVRSQMYSTDYDQILPDCYSWPEEVQKIQTKVDQ
stoichiometry N [6]: 2

The next lines start with the values.

stoichiometry N [2]: 2
Molecule: human c-NADP-ME H51A/D139A (from UniProt P48163 13-564) (enzyme)

stoichiometry N [3]: 2
Molecule: human c-NADP-ME H142A (from UniProt P48163 13-564) (enzyme)
